# Columns and labels:
# Assay in all cases: cell-based or functional assay
# [1] = biological target: T1, hIL-12 receptor signaling complex (hIL-12Rβ1 and hIL-12Rβ2) (human, UniProt P42701 24-662; Q99665 24-862)
# [2] = biological target: T1, hIL-12 receptor signaling complex …; remark: listed apart in the source
# [3] = biological target: T1, hIL-12 receptor signaling complex …; remark: listed apart in the source
# [4] = biological target: T1, hIL-12 receptor signaling complex …; remark: listed apart in the source
# T1 sequence (Q99665 24-862, chain 2 of 2, other chains not shown): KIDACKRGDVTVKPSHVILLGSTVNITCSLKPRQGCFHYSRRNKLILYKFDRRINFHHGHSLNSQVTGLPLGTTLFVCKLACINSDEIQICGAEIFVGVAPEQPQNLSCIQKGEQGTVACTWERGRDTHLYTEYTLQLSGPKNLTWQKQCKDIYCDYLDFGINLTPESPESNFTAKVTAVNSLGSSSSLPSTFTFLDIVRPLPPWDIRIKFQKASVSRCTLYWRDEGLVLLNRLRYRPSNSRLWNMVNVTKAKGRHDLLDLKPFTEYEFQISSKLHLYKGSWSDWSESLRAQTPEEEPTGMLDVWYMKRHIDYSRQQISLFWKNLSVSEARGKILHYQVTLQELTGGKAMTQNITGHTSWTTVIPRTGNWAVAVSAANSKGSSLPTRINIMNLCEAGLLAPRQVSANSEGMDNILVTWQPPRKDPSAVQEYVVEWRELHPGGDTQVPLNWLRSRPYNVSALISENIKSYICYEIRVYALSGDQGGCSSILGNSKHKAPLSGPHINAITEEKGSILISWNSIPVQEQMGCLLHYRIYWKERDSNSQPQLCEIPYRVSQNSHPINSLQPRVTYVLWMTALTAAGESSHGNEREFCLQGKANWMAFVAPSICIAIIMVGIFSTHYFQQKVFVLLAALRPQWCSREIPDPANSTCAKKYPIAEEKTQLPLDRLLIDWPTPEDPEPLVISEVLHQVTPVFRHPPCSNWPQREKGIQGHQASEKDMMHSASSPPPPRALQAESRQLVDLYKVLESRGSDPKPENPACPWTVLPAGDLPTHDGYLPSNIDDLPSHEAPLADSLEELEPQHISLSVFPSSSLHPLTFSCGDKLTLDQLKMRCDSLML
Binder,"IFNy [%+] EC50, CD8+ T Cells [1]","IFNy [%+] EC50, CD56hi NK Cells [1]","IFNy [%+] Emax, CD8+ T Cells [1]","IFNy [%+] Emax, CD56hi NK Cells [1]","pSTAT4 [%+] EC50, CD8+ T Cells [2]","pSTAT4 [%+] EC50, CD56hi NK Cells [2]","pSTAT4 [%+] Emax, CD8+ T Cells [2]","pSTAT4 [%+] Emax, CD56hi NK Cells [2]","pSTAT4 [gMFI] EC50, CD8+ T Cells [3]","pSTAT4 [gMFI] EC50, CD56hi NK Cells [3]","pSTAT4 [gMFI] Emax, CD8+ T Cells [3]","pSTAT4 [gMFI] Emax, CD56hi NK Cells [3]","IFNy [gMFI] EC50, CD8+ T Cells [4]","IFNy [gMFI] EC50, CD56hi NK Cells [4]","IFNy [gMFI] Emax, CD8+ T Cells [4]","IFNy [gMFI] Emax, CD56hi NK Cells [4]"
"human IL12 mutein, hIL-12p40 E81A, F82A with hIL-12p35-8X His (ligand) chain 1: IWELKKDVYVVELDWYPDAPGEMVVLTCDTPEEDGITWTLDQSSEVLGSGKTLTIQVKAAGDAGQYTCHKGGEVLSHSLLLLHKKEDGIWSTDILKDQKEPKNKTFLRCEAKNYSGRFTCWWLTTISTDLTFSVKSSRGSSDPQGVTCGAATLSAERVRGDNKEYEYSVECQEDSACPAAEESLPIEVMVDAVHKLKYENYTSSFFIRDIIKPDPPKNLQLKPLKNSRQVEVSWEYPDTWSTPHSYFSLTFCVQVQGKSKREKKDRVFTDKTSATVICRKNASISVRAQDRYYSSSWSEWASVPCS chain 2: RNLPVATPDPGMFPCLHHSQNLLRAVSNMLQKARQTLEFYPCTSEEIDHEDITKDKTSTVEACLPLELTKNESCLNSRETSFITNGSCLASRKTSFMMALCLSSIYEDLKMYQVEFKTMNAKLLMDPKRQIFLDQNMLAVIDELMQALNFNSETVPQKSSLEEPDFYKTKIKLCILLHAFRIRAVTIDRVMSYLNASGSHHHHHHHH",95 pM,20 pM,81.5 %+,94 %+,1.13 nM,1.85 nM,80.2 %+,85.2 %+,6.6 nM,5.94 nM,100000 gMFI,25000 gMFI,410 pM,2560 pM,17100 gMFI,187000 gMFI
"human IL12 mutein, hIL-12p40 E81A, F82A, K106A with hIL-12p35-8X His (ligand) chain 1: IWELKKDVYVVELDWYPDAPGEMVVLTCDTPEEDGITWTLDQSSEVLGSGKTLTIQVKAAGDAGQYTCHKGGEVLSHSLLLLHAKEDGIWSTDILKDQKEPKNKTFLRCEAKNYSGRFTCWWLTTISTDLTFSVKSSRGSSDPQGVTCGAATLSAERVRGDNKEYEYSVECQEDSACPAAEESLPIEVMVDAVHKLKYENYTSSFFIRDIIKPDPPKNLQLKPLKNSRQVEVSWEYPDTWSTPHSYFSLTFCVQVQGKSKREKKDRVFTDKTSATVICRKNASISVRAQDRYYSSSWSEWASVPCS chain 2: RNLPVATPDPGMFPCLHHSQNLLRAVSNMLQKARQTLEFYPCTSEEIDHEDITKDKTSTVEACLPLELTKNESCLNSRETSFITNGSCLASRKTSFMMALCLSSIYEDLKMYQVEFKTMNAKLLMDPKRQIFLDQNMLAVIDELMQALNFNSETVPQKSSLEEPDFYKTKIKLCILLHAFRIRAVTIDRVMSYLNASGSHHHHHHHH",533 pM,79 pM,78.4 %+,90.8 %+,1.86 nM,4.03 nM,77.7 %+,86.9 %+,9.75 nM,156 nM,86900 gMFI,35700 gMFI,1400 pM,2800 pM,15000 gMFI,140000 gMFI
